# Experimental data reported in patent US7264314B2, “Adrenocorticotropic hormone analogs and related methods” (priority 2004, dated 2007).
# Experiments:
# [1] = in vivo; cited from earlier work
# [2] = test system: ACTH-induced serum corticosterone in dexamethasone-suppressed mice; assay: in vivo Serum Corticosteroid Inhibition Assay; parameters: species or system FVB/N mice; details: peptide alone 120 minutes after dexamethasone, blood one hour later
# Excerpt: An in vivo Serum Corticosteroid Inhibition Assay measures the level of corticosteroid or corticosterone in the blood stream of a subject after administering a compound having a first corticosteroid-producing biological activity and a test compound. The compound having the corticosteroid-producing biological activity can be any compound known to induce a detectable increase in corticosteroid production. The test compound can be administered before the corticosteroid-producing compound, in combination with the corticosteroid-producing compound, and/or after the corticosteroid-producing compound. The corticosteroid-producing compound is preferably ACTH, but can also be an ACTH analog with a known corticosteroid-producing biological activity. By performing a series of in vivo Serum Corticosteroid Inhibition Assays using ACTH analog test compounds, ACTH analogs that inhibit the production of corticosteroid relative to the corticosteroid-producing compound used can be identified. Preferably, the ACTH analogs identified in this manner inhibit the production of corticosteroid in the presence of endogenous unmodified ACTH.
# The in vivo Serum Corticosteroid Inhibition Assay can include sequential administration of the test compound and the corticosteroid-producing compound by the following steps: first, an agent to suppress endogenous ACTH production was administered to a mouse subject, such as an intraperitoneal injection of dexamethasone; second, after waiting a suitable period of time for suppression of endogenous ACTH production (e.g., 1.5–2.0 hours), a test compound was administered to the mouse by a suitable method, such as intraperitoneal injection; third, after waiting a suitable period of time (e.g., 1 hour) for action of the test compound, a compound with corticosteroid-producing activity can be administered to the mouse by a suitable method, such as intraperitoneal injection; and fourth, after waiting a suitable period of time for the biological activity of both administered compounds to occur (e.g., 1 hour), a blood sample was taken from the subject and the level of serum corticosterone was determined by a suitable method, such as a competitive radioimmunoassay using ^125I RIA kit (ICN, Costa Mesa, Calif.). Optionally, steps two and three can be reversed (administering the corticosteroid-producing compound first, followed by administration of the test compound). The in vivo Serum Corticosteroid Inhibition Assay can also include co-administration of the test compound and the corticosteroid-producing compound by the following steps: first, an agent to suppress endogenous ACTH production was administered to a mouse subject, such as an intraperitoneal injection of dexamethasone; second, after waiting a suitable period of time for suppression of endogenous ACTH production (e.g., 1.5–2.0 hours), the corticosteroid-producing compound and a test compound were co-administered to the mouse by a suitable method, such as intraperitoneal injection; and third, after waiting a suitable period of time for the biological activity of both administered compounds to occur (e.g., 1 hour), a blood sample was taken from the subject and the level of serum corticosterone was determined by a suitable method, such as a competitive radioimmunoassay using ^125I RIA kit (ICN, Costa Mesa, Calif.). Also, in some embodiments, the first step in any in vivo Serum Corticosteroid Inhibition Assay can be replaced by a measurement of the initial endogenous corticosteroid or corticosteroid level in the blood of the subject in the manner of step four, instead of administering the agent to suppress ACTH production. Example 2 describes murine in vivo Serum Corticosteroid Inhibition Assays in detail.
# A series of separate in vivo Serum Corticosteroid Inhibition Assays were performed to identify ACTH analogs that inhibit ACTH adrenal hormone production in vivo. […]
# [3] = target: T1, adrenal ACTH receptors such as MC-2R (explanted adrenal membrane) (Mus musculus, UniProt Q64326); assay: in vitro Serum-free Adrenal Competitive Binding Assay; parameters: species or system mice; details: cold peptide at 10 nM, 100 nM, 1000 nM
# T1 construct: the adrenal halves were macerated or otherwise dissociated using Dounce Homogenizer to form a membrane fraction; from tissue; host or cells: membrane fraction of explanted mouse adrenal glands
# T1 sequence (Q64326 whole entry): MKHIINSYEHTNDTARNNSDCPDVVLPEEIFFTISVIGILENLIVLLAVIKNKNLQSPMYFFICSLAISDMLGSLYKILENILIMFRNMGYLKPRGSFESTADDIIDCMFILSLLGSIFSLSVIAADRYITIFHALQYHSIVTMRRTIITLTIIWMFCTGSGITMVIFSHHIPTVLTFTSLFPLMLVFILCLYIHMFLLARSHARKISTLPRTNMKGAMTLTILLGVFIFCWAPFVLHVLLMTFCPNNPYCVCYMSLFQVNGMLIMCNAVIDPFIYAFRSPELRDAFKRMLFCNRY
# T1 sequence (Q9D159 whole entry partner): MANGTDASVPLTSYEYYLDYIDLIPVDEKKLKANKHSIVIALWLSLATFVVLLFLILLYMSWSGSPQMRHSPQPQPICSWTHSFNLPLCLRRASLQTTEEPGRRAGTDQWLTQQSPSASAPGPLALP
# Excerpt: ACTH analog compounds that bind to adrenal membrane with a greater affinity than endogenous unmodified ACTH, and are able to displace unmodified ACTH can be identified using an in vitro Serum-free Adrenal Competitive Binding Assay (Example 3). […] A higher CPM level indicates the presence of greater amounts of the radiolabelled compound. […] Column 220 indicates the level of radio-labeled unmodified mACTH(1–24) detected after combining the explanted adrenal membrane with only the radio-labeled mACTH(1–24) for 2 hours.(no competitive binding). Columns 230, 240, and 250 show the results of competitive binding assays for binding of non-radio-labeled (“cold”) mACTH(1–24) to displace the radio-labeled mACTH(1–24) from the explanted adrenal membrane (measured in column 220) by competitive binding to receptors such as MC-2R on the adrenal membrane. […]
# ACTH analogs with the ability to bind adrenal receptors with a greater affinity than compounds with known adrenal binding activity (preferably ACTH) can also be identified by performing an in vitro Adrenal Competitive Binding Assay, whereby measurement of the reduction in the amount of the radiolabelled adrenal-binding compound (e.g., ACTH) is measured at various concentrations of non-radio-labeled ACTH analog test compound in a medium containing explanted adrenal membrane. […]
substance,measurement,setting,value
"N-Ser^1-Tyr-Ser-Met-Glu^5-His-Phe-Arg-Trp-Gly^10-Lys-Pro-Val-Gly-Lys^15-Lys-Arg-Arg-Pro-Val^20-Lys-Val-Tyr-Pro-Ac [mACTH(1–24), reference compound]",half life in blood,[1],less than 20 minutes
same,serum corticosterone level at 180 minutes,[2],500 ± 76 ng/mL
same,serum corticosterone level at 180 minutes,[2]; listed as ACTH,500 ± 76 ng/mL
same,displacement of radio-labeled mACTH(1–24) from explanted adrenal membrane (CPM),[3],displacement of the radio-labeled mACTH(1–24)
